Test results from patent US7122187 (IDEC PHARMACEUTICALS, dated 2006).

biological target: T1, human gp39 (cell surface) (human, UniProt P29965 1-261); experiment: Scatchard analysis, 125I-labelled antibody competed with unlabelled antibody on gp39-CHO cells
T1 construct: whole, on cells; this was read as mgp39-CHO (membrane gp39); also called CD40 ligand; CD40L
T1 sequence (looked up): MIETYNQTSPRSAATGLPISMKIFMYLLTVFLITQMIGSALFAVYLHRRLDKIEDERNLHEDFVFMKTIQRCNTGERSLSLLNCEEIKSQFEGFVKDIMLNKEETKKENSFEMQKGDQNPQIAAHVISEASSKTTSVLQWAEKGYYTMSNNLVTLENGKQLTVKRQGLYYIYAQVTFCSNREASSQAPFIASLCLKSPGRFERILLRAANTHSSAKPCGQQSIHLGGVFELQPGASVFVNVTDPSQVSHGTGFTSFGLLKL
Procedure: ^125I-labeled antibody was mixed and incubated with non-labeled antibody in a dilution series. Based on the total amount of bound antibody and the amount of free antibody, a Scatchard plot was generated from a […] graph. The total antibody concentration was based on a standard size of 75 kD for one active site.
The Kd was calculated by generating a "best fit" line. The inverse of the slope of the curve is the Kd. The correlation coefficient, r^2, was also computed.

Binder | Kd
humanized 24-31 (version 1) (antibody, V domains shown, also called h24-31; humanized Version 1) VH: EVQLQESGPGLVKPSETLSLTCTVSGDSITNGFWIWIRKPPGNKLEYMGYISYSGSTYYNPSLKSRISISRDTSKNQFSLKLSSVTAADTGVYYCACRSYGRTPYYFDFWGQGTTLTVSS VL: DIVMTQSPSFLSASVGDRVTITCKASQNVITAVAWYQQKPGKSPKLLIYSASNRYTGVPDRFSGSGSGTDFTLTISSLQPEDFADYFCQQYNSYPYTFGGGTKLEIK | 5.6 nM
humanized 24-31 (version 2) (antibody, V domains shown, It was expressed from N5KG1 with human kappa and gamma 1 constant regions; also called humanized Version 2; #2 VL with #1 VH) VH: EVQLQESGPGLVKPSETLSLTCTVSGDSITNGFWIWIRKPPGNKLEYMGYISYSGSTYYNPSLKSRISISRDTSKNQFSLKLSSVTAADTGVYYCACRSYGRTPYYFDFWGQGTTLTVSS VL: DIVMTQSPDSLAVSLGERATINCKASQNVITAVAWYQQKPGQSPKLLIYSASNRYTGVPDRFSGSGSGTDFTLTISSLQAEDVADYFCQQYNSYPYTFGGGTKLEIK | 14 nM
murine antibody 24-31 (antibody, mouse IgG1, V domains shown, Murine IgG1 from hybridoma; also called anti-gp39 24-31 mAb; murine 24-31) VH: EVQLQESGPSLVKPSQTLSLTCSVTGDSITNGFWIWIRKFPGNKLEYMGYISYSGSTYYNPSLKSRISITRDTSQNQFYLQLNSVTTEDTGTYYCACRSYGRTPYYFDFWGQGTTLTVSS VL: DIVMTQSQKFMSTSVGDRVSITCKASQNVITAVAWYQQKPGQSPKLLIYSASNRYTGVPDRFSGSGSGTDFTLTISNMQSEDLADYFCQQYNSYPYTFGGGTKLEIK | 8.51 nM
